Tests used:
[1] = biological target: purified human properdin (human) (UniProt P27918); assay: cell-based or functional assay
[2] = biological target: purified human properdin (human) (UniProt P27918); assay: ELISA, preformed C3bBbP on C3b-coated plates incubated with increasing IRAC II; bound properdin detected with anti-properdin antibody
[3] = biological target: purified human properdin (human) (UniProt P27918); assay: ELISA, preformed C3bBbP on C3b-coated plates incubated with increasing IxAC-B1; bound properdin detected with anti-properdin antibody

Chain of purified human properdin (human) (P27918 28-469 limits assumed): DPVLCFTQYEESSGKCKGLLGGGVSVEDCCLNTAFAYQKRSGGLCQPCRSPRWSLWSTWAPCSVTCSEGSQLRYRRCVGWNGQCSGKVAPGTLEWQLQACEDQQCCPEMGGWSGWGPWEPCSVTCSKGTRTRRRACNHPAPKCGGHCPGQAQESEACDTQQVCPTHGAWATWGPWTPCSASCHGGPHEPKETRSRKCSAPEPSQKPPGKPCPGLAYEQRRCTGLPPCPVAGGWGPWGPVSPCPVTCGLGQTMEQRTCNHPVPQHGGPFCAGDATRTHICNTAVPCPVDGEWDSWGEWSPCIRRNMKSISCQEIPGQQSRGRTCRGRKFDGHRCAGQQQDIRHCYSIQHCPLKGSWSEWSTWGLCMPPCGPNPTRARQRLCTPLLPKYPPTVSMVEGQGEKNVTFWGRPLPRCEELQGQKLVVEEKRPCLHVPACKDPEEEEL

recombinant IRAC I-V5His (Ixodes ricinus anticomplement protein I)
inhibition of alternative pathway haemolysis of rabbit red blood cells by human serum [1]: 85%

recombinant IRAC II-V5His (Ixodes ricinus anticomplement protein II)
inhibition of alternative pathway haemolysis of rabbit red blood cells by human serum [1]: 85%
percent of pre-bound properdin displaced [2]: 50%

recombinant IxAC-B1-V5His
inhibition of alternative pathway haemolysis of rabbit red blood cells by human serum [1]: 85%
percent of pre-bound properdin displaced [3]: 50%

recombinant IxAC-B2-V5His
inhibition of alternative pathway haemolysis of rabbit red blood cells by human serum [1]: 85%

recombinant IxAC-B3-V5His
inhibition of alternative pathway haemolysis of rabbit red blood cells by human serum [1]: 85%

recombinant IxAC-B4-V5His
inhibition of alternative pathway haemolysis of rabbit red blood cells by human serum [1]: 85%

recombinant IxAC-B5-V5His
inhibition of alternative pathway haemolysis of rabbit red blood cells by human serum [1]: 85%

Source: patent US20110008351A1
